Consider 1 molecule from US20260242478A1 (published 2026).

Common to all, as to assay: binding ELISA, biotinylated peptide on neutravidin plate, Fab titrated
One assay deals with T1, Peptide-87.
T1 peptide: YCAGHAWQYINKCL

A further assay addresses T2, Peptide-117.
T2 peptide: YCEGHSPEYILKCL

The target of the next assay is T3, Peptide-121.
T3 peptide: YCEGHAPEYIAKCL

The target in another assay is T4, Peptide-122.
T4 peptide: YCEGHAPEYIRKCL

A further assay deals with T5, Peptide-123.
T5 peptide: YCEGHAPEYIWKCL

The next assay has as its target T6, Peptide-124.
T6 peptide: YCEGHSQENIWKCL

In the next assay the target is T7, Peptide-125.
T7 peptide: YCEGHLPEYLGKCL

The target in a further assay is T8, Peptide-126.
T8 peptide: YCEGHLPEYREKCL

In a further assay the target is T9, Peptide-127.
T9 peptide: YCEGHLPEYLAKCL

Another assay has as its target T10, Peptide-129.
T10 peptide: YCEGHSSEYIQKCL

For a further assay, the target named is T11, Peptide-134.
T11 peptide: YCEGHLPEYIQKCL

The target in another assay is T12, Peptide-136.
T12 peptide: YCEGHAPEYIGKCL

B1: anti-CD28 Fab (Fab, V domains shown)
VH: QVQLVQSGAEVKKPGASVKVSCKASGYTFTSYYIHWVRQAPGQGLEWIGSIYPGNVNTNYNEKFKDRATLTVDTSISTAYMELSRLRSDDTAVYFCTRSHYGLDWNFDVWGQGTTVTVSS
VL: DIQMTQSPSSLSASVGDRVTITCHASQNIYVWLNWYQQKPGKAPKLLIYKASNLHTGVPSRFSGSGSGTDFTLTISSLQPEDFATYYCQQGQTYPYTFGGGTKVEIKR
Consider B1, for which the EC50 with Peptide-87 is 30.6 nM; with Peptide-117, 11 nM; in the assay with Peptide-121, 7.1 nM; with Peptide-122, 7.8 nM; with Peptide-123 it was 8.1 nM; in the assay with Peptide-124, 28.1 nM. Besides, the half-maximal effective concentration (EC50) with Peptide-125 came to 12.1 nM; with Peptide-126 it was 3.4 nM; with Peptide-127, 1.7 nM; in the assay with Peptide-129, 30.5 nM; with Peptide-134, 1.3 nM; with Peptide-136, 44.9 nM.
